Tests used:
[1] = tested on: HeLa Kyoto; assay: solubility change mitosis vs G1/S (difference of NP-40 vs SDS log2 ratios) (log2 ratio difference); higher = more soluble in mitosis
[2] = tested on: HeLa Kyoto; assay: solubility in G1/S (NP-40 vs SDS abundance) (log2 ratio); higher = more soluble; conditions: cell cycle stage: G1/S
[3] = tested on: HeLa Kyoto; assay: melting temperature (median over replicates), in situ; higher = more thermally stable
[4] = tested on: HeLa Kyoto; assay: thermal stability score vs G1/S (z-score of summed log2 fold changes over temperatures); higher = more thermally stable than in G1/S
[5] = cell cycle stage: early G1 (4.5 h after nocodazole release)
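Wherever melting temperature (median over replicates), in situ is given: HeLa Kyoto cells synchronized by double thymidine or nocodazole block, proteins quantified by TMT10plex mass spectrometry, three independent biological replicates.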
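Wherever solubility change mitosis vs G1/S (difference of NP-40 vs SDS log2 ratios) is given: synchronized HeLa Kyoto cells (double thymidine block for G1/S, nocodazole release for mitosis), protein amounts in NP-40 versus SDS lysates quantified by mass spectrometry, three biological replicates.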
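Wherever solubility in G1/S (NP-40 vs SDS abundance) is given: HeLa Kyoto cells arrested at G1/S by double thymidine block, proteins quantified by TMT10plex mass spectrometry in mild NP-40 versus SDS extracts, three biological replicates.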
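Wherever thermal stability score vs G1/S (z-score of summed log2 fold changes over temperatures) is given: synchronized HeLa Kyoto cells, proteins quantified by TMT10plex mass spectrometry, three biological replicates, mitosis taken 0.5 h after nocodazole release, G1/S directly after double thymidine block.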

## MANEAYPCPCDIGHRLEYGGLGREVQVEHIKAYVTKSPVDAGKAVIVIQDIFGWQLPNTRYIADMISGNGYTTIVPDFFVGQEPWDPSGDWSIFPEWLKTRNAQKIDREISAILKYLKQQCHAQKIGIVGFCWGGTAVHHLMMKYSEFRAGVSVYGIVKDSEDIYNLKNPTLFIFAENDVVIPLKDVSLLTQKLKEHCKVEYQIKTFSGQTHGFVHRKREDCSPADKPYIDEARRNLIEWLNKYM [CMBL]
[1]
  solubility change mitosis (log2): -0.08
[2]
  solubility in G1/S (log2): 0.267
[3]; cell cycle stage: G1/S
  melting temperature: 53.5 °C
[3]; cell cycle stage: mitosis
  melting temperature: 52.8 °C
[4]; [5]
  thermal stability score: -0.107
[4]; cell cycle stage: mitosis
  thermal stability score: -0.238

## MSAPFEERSGVVPCGTPWGQWYQTLEEVFIEVQVPPGTRAQDIQCGLQSRHVALSVGGREILKGKLFDSTIADEGTWTLEDRKMVRIVLTKTKRDAANCWTSLLESEYAADPWVQDQMQRKLTLERFQKENPGFDFSGAEISGNYTKGGPDFSNLEK [NUDCD2]
[1]
  solubility change mitosis (log2): 0.035
[2]
  solubility in G1/S (log2): 0.372
[3]; cell cycle stage: G1/S
  melting temperature: 47.7 °C
[3]; cell cycle stage: mitosis
  melting temperature: 49.5 °C
[4]; [5]
  thermal stability score: 1.01
[4]; cell cycle stage: mitosis
  thermal stability score: 2.41

## MSVLGEYERHCDSINSDFGSESGGCGDSSPGPSASQGPRAGGGAAEQEELHYIPIRVLGRGAFGEATLYRRTEDDSLVVWKEVDLTRLSEKERRDALNEIVILALLQHDNIIAYYNHFMDNTTLLIELEYCNGGNLYDKILRQKDKLFEEEMVVWYLFQIVSAVSCIHKAGILHRDIKTLNIFLTKANLIKLGDYGLAKKLNSEYSMAETLVGTPYYMSPELCQGVKYNFKSDIWAVGCVIFELLTLKRTFDATNPLNLCVKIVQGIRAMEVDSSQYSLELIQMVHSCLDQDPEQRPTADELLDRPLLRKRRREMEEKVTLLNAPTKRPRSSTVTEAPIAVVTSRTSEVYVWGGGKSTPQKLDVIKSGCSARQVCAGNTHFAVVTVEKELYTWVNMQGGTKLHGQLGHGDKASYRQPKHVEKLQGKAIRQVSCGDDFTVCVTDEGQLYAFGSDYYGCMGVDKVAGPEVLEPMQLNFFLSNPVEQVSCGDNHVVVLTRNKEVYSWGCGEYGRLGLDSEEDYYTPQKVDVPKALIIVAVQCGCDGTFLLTQSGKVLACGLNEFNKLGLNQCMSGIINHEAYHEVPYTTSFTLAKQLSFYKIRTIAPGKTHTAAIDERGRLLTFGCNKCGQLGVGNYKKRLGINLLGGPLGGKQVIRVSCGDEFTIAATDDNHIFAWGNGGNGRLAMTPTERPHGSDICTSWPRPIFGSLHHVPDLSCRGWHTILIVEKVLNSKTIRSNSSGLSIGTVFQSSSPGGGGGGGGGEEEDSQQESETPDPSGGFRGTMEADRGMEGLISPTEAMGNSNGASSSCPGWLRKELENAEFIPMPDSPSPLSAAFSESEKDTLPYEELQGLKVASEAPLEHKPQVEASSPRLNPAVTCAGKGTPLTPPACACSSLQVEVERLQGLVLKCLAEQQKLQQENLQIFTQLQKLNKKLEGGQQVGMHSKGTQTAKEEMEMDPKPDLDSDSWCLLGTDSCRPSL [NEK9]
[1]
  solubility change mitosis (log2): -0.102
[2]
  solubility in G1/S (log2): -0.134
[3]; cell cycle stage: G1/S
  melting temperature: 51 °C
[3]; cell cycle stage: mitosis
  melting temperature: 51.2 °C
[4]; [5]
  thermal stability score: 0.358
[4]; cell cycle stage: mitosis
  thermal stability score: -0.633

## MAAVAAVAARRRRSWASLVLAFLGVCLGITLAVDRSNFKTCEESSFCKRQRSIRPGLSPYRALLDSLQLGPDSLTVHLIHEVTKVLLVLELQGLQKNMTRFRIDELEPRRPRYRVPDVLVADPPIARLSVSGRDENSVELTMAEGPYKIILTARPFRLDLLEDRSLLLSVNARGLLEFEHQRAPRVSQGSKDPAEGDGAQPEETPRDGDKPEETQGKAEKDEPGAWEETFKTHSDSKPYGPMSVGLDFSLPGMEHVYGIPEHADNLRLKVTEGGEPYRLYNLDVFQYELYNPMALYGSVPVLLAHNPHRDLGIFWLNAAETWVDISSNTAGKTLFGKMMDYLQGSGETPQTDVRWMSETGIIDVFLLLGPSISDVFRQYASLTGTQALPPLFSLGYHQSRWNYRDEADVLEVDQGFDDHNLPCDVIWLDIEHADGKRYFTWDPSRFPQPRTMLERLASKRRKLVAIVDPHIKVDSGYRVHEELRNLGLYVKTRDGSDYEGWCWPGSAGYPDFTNPTMRAWWANMFSYDNYEGSAPNLFVWNDMNEPSVFNGPEVTMLKDAQHYGGWEHRDVHNIYGLYVHMATADGLRQRSGGMERPFVLARAFFAGSQRFGAVWTGDNTAEWDHLKISIPMCLSLGLVGLSFCGADVGGFFKNPEPELLVRWYQMGAYQPFFRAHAHLDTGRREPWLLPSQHNDIIRDALGQRYSLLPFWYTLLYQAHREGIPVMRPLWVQYPQDVTTFNIDDQYLLGDALLVHPVSDSGAHGVQVYLPGQGEVWYDIQSYQKHHGPQTLYLPVTLSSIPVFQRGGTIVPRWMRVRRSSECMKDDPITLFVALSPQGTAQGELFLDDGHTFNYQTRQEFLLRRFSFSGNTLVSSSADPEGHFETPIWIERVVIIGAGKPAAVVLQTKGSPESRLSFQHDPETSVLVLRKPGINVASDWSIHLR [GANAB]
[1]
  solubility change mitosis (log2): -0.155
[2]
  solubility in G1/S (log2): -0.0187
[3]; cell cycle stage: G1/S
  melting temperature: 53.6 °C
[3]; cell cycle stage: mitosis
  melting temperature: 54.2 °C
[4]; [5]
  thermal stability score: 3.69
[4]; cell cycle stage: mitosis
  thermal stability score: 5.36

## USP16
[1]
  solubility change mitosis (log2): 0.122
[2]
  solubility in G1/S (log2): -0.321
[3]; cell cycle stage: G1/S
  melting temperature: 50.4 °C
[3]; cell cycle stage: mitosis
  melting temperature: 49.5 °C
[4]; [5]
  thermal stability score: -0.114
[4]; cell cycle stage: mitosis
  thermal stability score: 0.382

## RSBN1L
[1]
  solubility change mitosis (log2): 0.0823
[2]
  solubility in G1/S (log2): -0.468
[3]; cell cycle stage: G1/S
  melting temperature: 54.7 °C
[3]; cell cycle stage: mitosis
  melting temperature: 53.4 °C
[4]; [5]
  thermal stability score: -0.891
[4]; cell cycle stage: mitosis
  thermal stability score: -3.56

## MSSGAPQKSSPMASGAEETPGFLDTLLQDFPALLNPEDPLPWKAPGTVLSQEEVEGELAELAMGFLGSRKAPPPLAAALAHEAVSQLLQTDLSEFRKLPREEEEEEEDDDEEEKAPVTLLDAQSLAQSFFNRLWEVAGQWQKQVPLAARASQRQWLVSIHAIRNTRRKMEDRHVSLPSFNQLFGLSDPVNRAYFAVFDGHGGVDAARYAAVHVHTNAARQPELPTDPEGALREAFRRTDQMFLRKAKRERLQSGTTGVCALIAGATLHVAWLGDSQVILVQQGQVVKLMEPHRPERQDEKARIEALGGFVSHMDCWRVNGTLAVSRAIGDVFQKPYVSGEADAASRALTGSEDYLLLACDGFFDVVPHQEVVGLVQSHLTRQQGSGLRVAEELVAAARERGSHDNITVMVVFLRDPQELLEGGNQGEGDPQAEGRRQDLPSSLPEPETQAPPRS [PPM1F]
[1]
  solubility change mitosis (log2): -0.0364
[2]
  solubility in G1/S (log2): 0.464
[3]; cell cycle stage: G1/S
  melting temperature: 51.8 °C
[3]; cell cycle stage: mitosis
  melting temperature: 52.7 °C
[4]; [5]
  thermal stability score: -0.813
[4]; cell cycle stage: mitosis
  thermal stability score: -0.95

— the supplement of paper PMC5998384
